Results reported in patent publication US20060073571A1 (CORNELL RESEARCH FOUNDATION, published 2006).

B1: human chorionic gonadotropin (hCG), highly purified, CR-125, NICHD (ligand)
chain 1: not shown
chain 2: SKEPLRPRCRPINATLAVEKEGCPVCITVNTTICAGYCPTMTRVLQGVLPALPQVVCNYRDVRFESIRLPGCPRGVNPVVSYAVALSCQCALCRRSTTDCGGPKDHPLTCDDPRFQDSSSSKAPPPSLPSPSRLPGPSDTPILPQ

What was measured:
[1] = target: B1; assay: displacement of biotinylated-hCG by unlabeled hCG on transfected Sf9 cells, HRP-streptavidin ELISA
Description: A competitive binding assay was performed to determine whether hCG would bind to the chimeric protein containing both hLH-R-ECD and hCG-β-CTP. After 24 hr of transfection with recombinant baculovirus, Sf9 insect cells were incubated for 24 hr at 27° C. with 20 ng/μl of biotinylated-hCG and increasing concentrations of unlabeled hCG as the competitor. The Sf9 cells infected with the recombinant baculovirus containing ECD of LH-R alone was set up as the control. The binding of biotinylated-hCG on the surface of the Sf9 insect cells was examined by ELISA using horseradish peroxidase (HRP)-streptavidin conjugate.

[2] = target: recombinant chimeric hLH-R-hCG-β fusion protein (full-length human lutropin hormone receptor, Arg-Ser linker, … (human)); assay: cell-based or functional assay

Row | binding result [1] | intracellular cAMP, increase over baseline [2] [fold] | Binder
1 | binds |  | recombinant chimeric protein hLH-R-ECD-hCG-β-CTP (extracellular domain of hLH-R, Gly-Thr linker, carboxyl terminal peptide of hCG-β) (receptor, The vector was pBlueBac4.5/V5-His; also called chimera 3; hLH-R-ECD/hCG-CTP) LPRALREALCPEPCNCVPDGALRCPGPTAGLTRLSLAYLPVKVIPSQAFRGLNEVIKIEISQIDSLERIEANAFDNLLNLSEILIQNTKNLRYIEPGAFINLPRLKYLSICNTGIRKFPDVTKVFSSESNFILEICDNLHITTIPGNAFQGMNNESVTLKLYGNGFEEVQSHAFNGTTLTSLELKENVHLEKMHNGAFRGATGPKTLDISSTKLQALPSYGLESIQRLIATSSYSLKKLPSRETFVNLLEATLTYPSHCCAFRNLPTKEQNFSHSISENFSKQCESTVRKVSNKTLYSSMLAESELSGWDYEYGFCLPKTPRCAPEPGTLTCDDPRFQDSSSSKAPPPSLPSPSRLPGPSDTPILPQ
2 |  | ~6 | B1
